Measurements as given in patent US20230242902A1, “A HIGHLY ERROR-PRONE […] R[…] FOR TARGETED CONTINUOUS EVOLUTION IN VIVO” (The Regents of the University of California, priority 2017, published 2023).

Assays:
p2-encoded leu2* = experiment: p2 leu2* fluctuation tests in GA-Y021 (p2 mutation rate reporter strain); type: cell-based, S. cerevisiae; conditions: for Per-base substitution rate pf p2: TP-DNAP2 variant in trans, wt TP-DNAP2 in cis, 36 replicates, (95% C.I.); for Fold increase: p2 substitution rate over no variant in trans
Excerpt: For fluctuation tests used to measure p2 mutation rates, leu2* served as a marker for detecting mutational events. leu2* is a disabled version of LEU2, where Q180 is replaced with a TAA stop codon. Q180 is a permissive site where mutation to any other codon other than TAG and TGA results in functional reversion to LEU2. These mutational events can be detected by plating scores of parallel cultures on medium lacking leucine and counting the number distribution of functional LEU2 mutants.
For TP-DNAP2 library screening, each library member was subjected to small-scale leu2* fluctuation tests with six replicates. 190 library members from each yeast library transformation were arrayed and inoculated into liquid SC medium lacking uracil and histidine, and passaged three times at 1:10,000 dilutions. mKate2 fluorescence was measured at every passage on a microplate reader (TECAN Infinite® 200 PRO, settings: λex=588, λem=633) to track p2 copy number stabilization. To perform fluctuation tests, each library member was diluted 1:10,000 into liquid SC medium buffered to pH 5.8 and lacking uracil, histidine, tryptophan, and dilutions were split into six 100 μL replicates. Cultures were grown for 48 hours at 30° C. to reach saturation. Saturated cultures were washed with 200 μL 0.9% NaCl to remove residual leucine and resuspended in 35 μL of 0.9% NaCl. 10 μL of this resuspension was spot plated onto solid SC medium buffered to pH 5.8 and lacking uracil, histidine, tryptophan and leucine. Spot plates were allowed to dry and incubated at 30° C. Colonies were counted after 5 days. Colony counts were used to calculate the expected number of LEU2 functional mutants (m), using the p0 method (Foster, 2006, Methods Enzymol, 409:195-213).
To precisely measure p1 and p2 per-base substitution mutation rates, several modifications were made to the small-scale protocol. First, 36 replicates were performed for reconfirmation of candidate TP-DNAP2 mutators, and 48 replicates for genomic and mutual orthogonality experiments. Titers were also determined for each strain after spot plating by pooling the residual volume from 4 replicates and plating dilutions on YPD. The expected number of LEU2 functional mutants (m) was determined by the Ma-Sandri-Sarkar maximum likelihood estimator (as calculated by the FALCOR tool and corrected for partial plating (Foster, 2006, Methods Enzymol, 409:195-213; Sarkar et al., 1992, Genetica, 85:173-179; Hall et al., 2009, Bioinformatics, 25:1564-1565). The mean mKate2 fluorescence was determined from 50,000 event counts on Attune™ NxT Flow Cytometer and converted to p2 copy number by using a calibration curve. To determine per-base substitution rates, the corrected m was normalized to the average cell titer, the p2 copy number, and the target size for functional leu2* reversion (2.33 bp). 95% confidence intervals were similarly scaled.
To identify error-prone TP-DNAP2s, a small library of TP-DNAP2s diversified at locations hypothesized to be responsible for DNAP fidelity was screened. […] Four distinct site-saturation mutagenesis libraries were generated, each diversifying S370, Y424, L474, or F882 in TP-DNAP2 encoded on pGA55-reTP-DNAP2. Due to unsuccessful attempts to generate a strain with a full deletion of p2-encoded TP-DNAP2 and simultaneous integration of mKate, URA3, and leu2*, each library was transformed into GA-Y021 for convenient screening. However, since GA-Y021 still encodes wt TP-DNAP2 on p2-delORF1-mUL*, p2 mutation rates measured in this format are the result of in tandem replication of p2 by wt TP-DNAP2 and each TP-DNAP2 variant encoded in trans. 6-fold coverage of each library was maintained by picking 190 yeast colonies and passaging under selection for URA3 to stabilize the copy number of p2-delORF1-mUL* in the presence of the newly introduced TP-DNAP2 variants. […]

p1-encoded leu2 (Q180*) = experiment: Large-scale p1 fluctuation tests of p1-encoded leu2 (Q180*), per-base substitution rate; type: cell-based, S. cerevisiae; conditions: per-base substitution rate, p1-encoded leu2 (Q180*), large-scale fluctuation test
Procedure, shortened: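 Yeast OR-Y24 carrying p1-encoded leu2 (Q180*) with individual TP-DNAP1 variants; 36-48 replicates (3-16 for highly error-prone variants), LEU2 revertants scored without leucine. Rates by maximum likelihood, normalized to cells per culture, p1 copy number (flow cytometry) and 2.33 reversion routes.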

Molecule	Per-base substitution rate pf p2 (p2-encoded leu2*)	Fold increase (p2-encoded leu2*)	Mutation rate (s.p.b.) (p1-encoded leu2 (Q180*))
S370P: TP-DNAP2 variant (protein, listed as Kluyveromyces lactis) MNDELAFLNSQIDDYSDDIEFLRTEVFRINRYSKSIYSLMKNSSKEAIKETIEFNKYGQEIHSKIKEKEISLIEAIKLMEKKYKYLRSLNKTKDKSKKKKIHTKDIETLKTIYKTKADFDIRNFKNAETFTYENYSLLIPSEKELIDLIPEIEEDYSYYFYVSLTITGPTIFGGVTRKVPIIDTYGDINKDFYNKIKENITKVLDRVPFYEEKESEIICKKVLITLTVNKWESIDKWYKNVKSKSKKFKDFTLFLASDTSKNCVQQCVEYLGGKWNTNYSLEKMIPQQKIVTYIPLLMDIQYVQSMEDLISDFDEPNTDCKNIARLLKWNGHMGVITKIDKDVKINRIQRKRIIDVENKEVKEVFFDIEPFSDETKHQIPYLICWSYLGELYYRTGKNCIKEFVEEILSYNVDIILYAWYGSGYDYQHVLPYMKSKCIKDKYIIKNNMITYGELYYENAIIYLKDPYLFILTSLDKASKAFNVINKGEFPHSIIHSWEDLNKILPNWVKIQKRMIEYKDDNKLNIYYKNIEIFENDRNYNTILENAIEYCKVDVLAMEKVWIKFKKLLEKNLNITVSVKTFTLSQLSMKIMESKLPKYVKLYVPTLEEYSKIRNAIYGGRVISKNGIYEENIVYADVVSLYPSAMKLLKHSYGKPKLVDYIDFEKHGIYRVTLLNKHDQEPKNYLNFVPRRINRKLTWEWFKIHEGWYHTYDLIIAKSEGFDIYCHEGFEYPEKDYIFNDFIDTLYSMKETHTACSCEEQPCPIRMVAKIALNGGGYGKFVQKPIDKEIYIVKRDVVAGECDKLQENENGEICIGKRLVKRPLFYNLDSENYDKMIIEKEDEPIYSTQCGISILSASRYRLYKLCKQFENIDIIYSDTDSIFVKQKSVDWELFKSKCGSELGQLDSTIDDTKNAIISKMYIGGAKMYAFEYLNNKNKLITKLHCKGVPNYMLSLNQFKYLMESPDNTIAYKFEIIRRKLVNVITKDLIKDIKQT	50.1 (32.4-70.4) ×10^−10	8.4	
S370R: TP-DNAP2 variant (protein, listed as Kluyveromyces lactis) MNDELAFLNSQIDDYSDDIEFLRTEVFRINRYSKSIYSLMKNSSKEAIKETIEFNKYGQEIHSKIKEKEISLIEAIKLMEKKYKYLRSLNKTKDKSKKKKIHTKDIETLKTIYKTKADFDIRNFKNAETFTYENYSLLIPSEKELIDLIPEIEEDYSYYFYVSLTITGPTIFGGVTRKVPIIDTYGDINKDFYNKIKENITKVLDRVPFYEEKESEIICKKVLITLTVNKWESIDKWYKNVKSKSKKFKDFTLFLASDTSKNCVQQCVEYLGGKWNTNYSLEKMIPQQKIVTYIPLLMDIQYVQSMEDLISDFDEPNTDCKNIARLLKWNGHMGVITKIDKDVKINRIQRKRIIDVENKEVKEVFFDIERFSDETKHQIPYLICWSYLGELYYRTGKNCIKEFVEEILSYNVDIILYAWYGSGYDYQHVLPYMKSKCIKDKYIIKNNMITYGELYYENAIIYLKDPYLFILTSLDKASKAFNVINKGEFPHSIIHSWEDLNKILPNWVKIQKRMIEYKDDNKLNIYYKNIEIFENDRNYNTILENAIEYCKVDVLAMEKVWIKFKKLLEKNLNITVSVKTFTLSQLSMKIMESKLPKYVKLYVPTLEEYSKIRNAIYGGRVISKNGIYEENIVYADVVSLYPSAMKLLKHSYGKPKLVDYIDFEKHGIYRVTLLNKHDQEPKNYLNFVPRRINRKLTWEWFKIHEGWYHTYDLIIAKSEGFDIYCHEGFEYPEKDYIFNDFIDTLYSMKETHTACSCEEQPCPIRMVAKIALNGGGYGKFVQKPIDKEIYIVKRDVVAGECDKLQENENGEICIGKRLVKRPLFYNLDSENYDKMIIEKEDEPIYSTQCGISILSASRYRLYKLCKQFENIDIIYSDTDSIFVKQKSVDWELFKSKCGSELGQLDSTIDDTKNAIISKMYIGGAKMYAFEYLNNKNKLITKLHCKGVPNYMLSLNQFKYLMESPDNTIAYKFEIIRRKLVNVITKDLIKDIKQT	31.9 (22.4-42.5) ×10^−10	5.3	
V774I, L900S (protein) MDYKDKALNDLRNVYADFDSLPLDFRQILIKDRATLLQKEDVEKKILERQEDAKKYAEYLKQSEIPERISLPNIKRHKGVSISFEETSEDMVLEPRPFIFDGLNIRCFRRETIFSLKNKILNMVKESSSFKNVSRQSVSFMYFKIFNKGKVIASTKSVNIYEDKIDERLEDLCNNFDDVLKKIIDVTYGYESLFVSETYSYVIFYAKSIYFPQPRCVNNWGNNIPNILTFDSFKLFTANKNNVSCIKQCSRFLWQKDFNTLEEMIEYKNGNICIVTPQLHINDVRDIKSFNDIRLYSESPIKTFSVIDNTITYLFYFKEHLGVIFNITKSRHDRRVTKFSPLSKFSDVKNITVCFDIESYFDPEKESNQVNIPFICCASIIYNKVIGNIVDFEGRDCVAQMIEYVVDICGELNISSVELIAHNGGGYDFHYILSSMYNPAAIKNILIRNNSFISFNFAHDGVKFSVKDSYSFLLCSLANASKAFLNEETFKKTDFPHHDLKTADDLYKVYKEWSSVNTEINHVVEKEKLLITSEHIVNFTKNDKSKTLIEWSKDYCRNDVLVLSKVWLEFKNAVEDIFNCELVDQTMTLAGLSYKLFQANMPFDVELRHPNKEDYFNMREALIGGRCISVNGIYKDVLCLDVKSLYPASMAFYDQPYGSFKRVSSRPKDELGIYYVRVTPNRNNKSNFFPIRSHNKITYNNFEESTYIAWYTNVDIDIGLSEGHNIEYIPFDSYGNIGYSWSKKGKIFEKYIKDVLYKLKIKYEKQNNKVKRNIIKIIMNSLWGKFAQKWVNFEYFIKSEDDIDFESEEAYKIWDTDFMLIKKIKESTYSSKPIQNGVFTLSWARYHMKSIWDAGAKEGAECIYSDTDSIFVHKEHFKKNAKFMLNGLKVPIIGSEVGQSELECEFDKLLCAGKKQYMGFYTYFQDGKPCIKEKKRFKGIPSNYIIPELYAHLLSGADKEAKIQFLKFRREWGSVKGYIENKTVKAT			1.10 × 10^−7 s.p.b.
V774I, F968C (protein) MDYKDKALNDLRNVYADFDSLPLDFRQILIKDRATLLQKEDVEKKILERQEDAKKYAEYLKQSEIPERISLPNIKRHKGVSISFEETSEDMVLEPRPFIFDGLNIRCFRRETIFSLKNKILNMVKESSSFKNVSRQSVSFMYFKIFNKGKVIASTKSVNIYEDKIDERLEDLCNNFDDVLKKIIDVTYGYESLFVSETYSYVIFYAKSIYFPQPRCVNNWGNNIPNILTFDSFKLFTANKNNVSCIKQCSRFLWQKDFNTLEEMIEYKNGNICIVTPQLHINDVRDIKSFNDIRLYSESPIKTFSVIDNTITYLFYFKEHLGVIFNITKSRHDRRVTKFSPLSKFSDVKNITVCFDIESYFDPEKESNQVNIPFICCASIIYNKVIGNIVDFEGRDCVAQMIEYVVDICGELNISSVELIAHNGGGYDFHYILSSMYNPAAIKNILIRNNSFISFNFAHDGVKFSVKDSYSFLLCSLANASKAFLNEETFKKTDFPHHDLKTADDLYKVYKEWSSVNTEINHVVEKEKLLITSEHIVNFTKNDKSKTLIEWSKDYCRNDVLVLSKVWLEFKNAVEDIFNCELVDQTMTLAGLSYKLFQANMPFDVELRHPNKEDYFNMREALIGGRCISVNGIYKDVLCLDVKSLYPASMAFYDQPYGSFKRVSSRPKDELGIYYVRVTPNRNNKSNFFPIRSHNKITYNNFEESTYIAWYTNVDIDIGLSEGHNIEYIPFDSYGNIGYSWSKKGKIFEKYIKDVLYKLKIKYEKQNNKVKRNIIKIIMNSLWGKFAQKWVNFEYFIKSEDDIDFESEEAYKIWDTDFMLIKKIKESTYSSKPIQNGVFTLSWARYHMKSIWDAGAKEGAECIYSDTDSIFVHKEHFKKNAKFMLNGLKVPIIGSEVGQLELECEFDKLLCAGKKQYMGFYTYFQDGKPCIKEKKRFKGIPSNYIIPELYAHLLSGADKEAKIQFLKCRREWGSVKGYIENKTVKAT			1.14 × 10^−7 s.p.b.
